# Measurements reported in the supplement of paper PMC10724198.
# How the values were obtained:
# [1] = system: Saccharomyces cerevisiae; experiment: protein stability index of tFT-peptide fusion in wild type (PSI (0-1 scale)); higher = more stable (slower turnover); conditions: genetic background: wild type
# Method: (§1)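 MPS profiling in S. cerevisiae of two library types built from selected 12-aa C-degron peptides (IN1, IN2, LN1, LN3, VN2, R1-R5, W1-W3, Atg1 and Rpa12 C-termini): saturation mutagenesis libraries and C-terminal +1 capping libraries (13 aa). Each peptide is fused to the C-terminus of a sfGFP-mCherry timer, after a GGGS linker. Cells are FACS-sorted into 8 mCherry/sfGFP bins and sequenced. PSI runs from 0 (unstable) to 1 (stable), measured once in wild type and in the das1Δ or doa10Δ background.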
# [2] = system: Saccharomyces cerevisiae; experiment: protein stability index of tFT-peptide fusion in deletion strain of DAS1 (PSI (0-1 scale)); higher = more stable (slower turnover)
# Method: as §1
# 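Wherever protein stability index of tFT-peptide fusion in deletion strain of DAS1 is given: PSI is a weighted mean of each variant's read distribution over the sorted stability bins, computed only for variants having over 10 reads in total.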
# 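Wherever protein stability index of tFT-peptide fusion in wild type is given: PSI derived as read-weighted mean over the 8 sorting bins, only variants exceeding 10 total reads kept, mCherry placed adjacent to the peptide and sfGFP distal.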
Sequence,protein stability index [1],protein stability index [2]
CTSCGYKQRTNN,0.538,0.688
CTSCGYKRRTNN,0.477,0.683
CTSDGYKFRTNN,0.517,0.669
CTSLGYKFRTNN,0.17,0.689
CTSRGYKFRTNN,0.215,0.685
CYSCGYKFRTNN,0.168,0.708
DKHKKGQKQKIN,0.113,0.602
FMMRWTFRYWVN,0.0399,0.359
FQMRWTFRYWVN,0.0681,0.46
FRMRWTFRYWVN,0.0353,0.584
FSKRWTFRYWVN,0.0512,0.596
FSMEWTFRYWVN,0.112,0.425
FSMRNTFRYWVN,0.0817,0.578
FSMRSTFRYWVN,0.096,0.608
FSMRWCFRYWVN,0.0796,0.554
FSMRWEFRYWVN,0.0711,0.471
FSMRWNFRYWVN,0.0584,0.536
FSMRWTFDYWVN,0.618,0.577
FSMRWTFHYWVN,0.048,0.456
FSMRWTFREWVN,0.0594,0.57
FSMRWTFRRWVN,0.11,0.623
FSMRWTFRWWVN,0.0591,0.462
FSMRWTFRYLVN,0.0662,0.479
FSMRWTFRYWNN,0.158,0.549

Sequence,protein stability index [1],protein stability index [2]
FSMRWTFRYWVM,0.136,0.482
FSMRWTFRYWVNP,0.533,0.544
FSMRWTFRYWVR,0.416,0.446
FSMRWTFWYWVN,0.0405,0.416
FSMRWTNRYWVN,0.0731,0.592
FSMRWTRRYWVN,0.101,0.585
FSMSWTFRYWVN,0.0567,0.493
GTSCGYKFRTNN,0.261,0.659
HSLAASFWRVVG,0.121,0.691
KKHKAGQKQKIN,0.0948,0.579
KKHKKGCKQKIN,0.0767,0.598
KKHKKGDKQKIN,0.137,0.599
KKHKKGLKQKIN,0.0663,0.596
KKHKKGQKPKIN,0.574,0.626
KKHKKGQKQKDN,0.607,0.638
KKHKKGQKQKINL,0.652,0.663
KKHKKGQKQKKN,0.577,0.843
KKHKKGQKQKMN,0.0838,0.533
KKHKKGQKQKNN,0.476,0.643
KKHKKGQKQSIN,0.673,0.577
KKHKKTQKQKIN,0.0737,0.677
KKHKVGQKQKIN,0.0595,0.567
KKHPKGQKQKIN,0.14,0.684
KKHSKGQKQKIN,0.0645,0.576

Sequence,protein stability index [1],protein stability index [2]
KKILRQKMNHQN,0.159,0.688
KKPKKGQKQKIN,0.174,0.591
KKSKKGQKQKIN,0.0679,0.576
KKTKKGQKQKIN,0.113,0.583
KKVKKGQKQKIN,0.122,0.631
KPHKKGQKQKIN,0.0908,0.625
KQHKKGQKQKIN,0.104,0.621
KTHKKGQKQKIN,0.0924,0.684
LCILRQKMNHQN,0.115,0.655
LDILRQKMNHQN,0.121,0.707
LEILRQKMNHQN,0.161,0.672
LFVYLSCVACIN,0.0334,0.0251
LKCLRQKMNHQN,0.205,0.682
LKELRQKMNHQN,0.217,0.673
LKIGRQKMNHQN,0.414,0.674
LKILGQKMNHQN,0.365,0.678
LKILRHKMNHQN,0.194,0.693
LKILRMKMNHQN,0.243,0.71
LKILRQKFNHQN,0.202,0.668
LKILRQKMDHQN,0.613,0.673
LKILRQKMFHQN,0.206,0.654
LKILRQKMNHKN,0.484,0.678
LKILRQKMNHLN,0.192,0.674
LKILRQKMNHMN,0.191,0.605

Sequence,protein stability index [1],protein stability index [2]
LKILRQKMNHQD,0.622,0.667
LKILRQKMNHQG,0.215,0.656
LKILRQKMNHTN,0.197,0.672
LKILRQKMQHQN,0.238,0.716
LKILRQKVNHQN,0.282,0.661
LKILVQKMNHQN,0.218,0.662
LKIQRQKMNHQN,0.23,0.676
LKPLRQKMNHQN,0.172,0.682
LKVYLSCVACIN,0.0444,0.14
LKYLRQKMNHQN,0.17,0.629
LRILRQKMNHQN,0.148,0.666
LVAYLSCVACIN,0.0244,0.156
LVGYLSCVACIN,0.0848,0.342
LVVKLSCVACIN,0.0127,0.0586
LVVPLSCVACIN,0.254,0.359
LVVYLSCTACIN,0.0192,0.0401
LVVYLSCVACCN,0.0106,0.0342
LVVYLSCVACHN,0.0435,0.0392
LVVYLSCVACIG,0.0178,0.0316
LVVYLSCVACINH,0.0236,0.0365
LVVYLSCVACINM,0.183,0.206
LVVYLSCVACINV,0.02,0.0328
LVVYLSCVACMN,0.0204,0.0497
LVVYLSCVACNN,0.127,0.16

Sequence,protein stability index [1],protein stability index [2]
LVVYLSCVACSN,0.0158,0.0313
LVVYLSCVAYIN,0.0128,0.0273
LVVYLSCVDCIN,0.402,0.417
LVVYLSCVECIN,0.125,0.262
LVVYLSCVFCIN,0.0477,0.167
LVVYLSCVICIN,0.0482,0.112
LVVYLSHVACIN,0.148,0.411
LVVYLSNVACIN,0.344,0.5
LVVYLSRVACIN,0.087,0.356
LVVYRSCVACIN,0.133,0.333
LWVYLSCVACIN,0.0149,0.0209
LYILRQKMNHQN,0.135,0.666
PDKKNHLIKLLN,0.09,0.768
PDKRAHLIKLLN,0.112,0.617
PDKRNHKIKLLN,0.086,0.599
PDKRNHLIALLN,0.216,0.634
PDKRNHLIKELN,0.355,0.597
PDKRNHLIKLIN,0.115,0.612
PDKRNHLIKLLI,0.206,0.594
PDKRNHLIKLPN,0.592,0.587
PDKRNHLIKLQN,0.453,0.737
